Values of other authors, collected in article PMC6627586.

Target: ceruloplasmin (Homo sapiens) (UniProt P00450)
Chain of UniProt P00450 (P00450 20-1065): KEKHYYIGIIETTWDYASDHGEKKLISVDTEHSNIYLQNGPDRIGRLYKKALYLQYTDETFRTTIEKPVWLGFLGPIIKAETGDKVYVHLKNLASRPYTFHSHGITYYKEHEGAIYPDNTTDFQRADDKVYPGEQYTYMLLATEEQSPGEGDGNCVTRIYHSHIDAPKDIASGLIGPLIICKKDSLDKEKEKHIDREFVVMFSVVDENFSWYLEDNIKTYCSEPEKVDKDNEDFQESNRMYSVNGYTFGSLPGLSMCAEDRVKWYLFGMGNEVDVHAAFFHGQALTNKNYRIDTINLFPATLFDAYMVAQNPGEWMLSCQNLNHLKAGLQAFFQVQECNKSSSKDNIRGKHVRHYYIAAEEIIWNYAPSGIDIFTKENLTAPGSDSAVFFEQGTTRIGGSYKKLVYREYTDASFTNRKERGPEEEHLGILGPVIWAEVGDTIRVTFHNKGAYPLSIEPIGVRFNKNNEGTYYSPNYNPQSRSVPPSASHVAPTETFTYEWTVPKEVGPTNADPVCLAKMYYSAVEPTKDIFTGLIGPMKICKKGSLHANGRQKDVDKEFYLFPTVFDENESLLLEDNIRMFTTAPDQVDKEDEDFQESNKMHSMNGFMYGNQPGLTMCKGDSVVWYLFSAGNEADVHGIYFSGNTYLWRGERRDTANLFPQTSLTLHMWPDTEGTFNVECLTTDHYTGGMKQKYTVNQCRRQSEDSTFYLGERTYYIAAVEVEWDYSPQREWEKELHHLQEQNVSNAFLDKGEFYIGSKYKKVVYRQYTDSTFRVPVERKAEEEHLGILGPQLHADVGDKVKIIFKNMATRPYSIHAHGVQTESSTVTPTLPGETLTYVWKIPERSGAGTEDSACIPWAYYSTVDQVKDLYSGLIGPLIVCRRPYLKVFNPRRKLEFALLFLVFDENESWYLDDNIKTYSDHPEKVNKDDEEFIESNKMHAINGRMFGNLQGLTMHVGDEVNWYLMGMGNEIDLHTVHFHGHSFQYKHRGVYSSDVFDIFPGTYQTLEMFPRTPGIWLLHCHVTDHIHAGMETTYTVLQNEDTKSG

For “CTR1 second extracellular loop fragment (from UniProt O15431)”, the Kd is listed as 1500 nM.
